From the supplement of paper PMC9112550, “Optimization of the antimicrobial peptide Bac7 by deep mutational scanning” (BMC Biology, 2022) come the findings set out here.

For the data set, the system named is Escherichia coli TOP10. Kind of data set: shrunken log2 fold change of peptide-encoding DNA abundance (4.5 h post-induction vs induction); higher = less antimicrobial activity (less host growth inhibition). The following applies: time post-induction: 4.5 h; library: site-saturation at positions 5, 18, 19, 20.
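Also: peptides expressed intracellularly from a pBAD plasmid library in pooled LB shake-flask culture, induced with 0.3% L-arabinose, DNA abundance read by NGS, three biological replicates, DESeq2 with apeglm shrinkage.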

As to RRIRHRPPRLPRPRPRPTRDPRP, the “shrunken log2 fold change” value turned out to be 0.054.
The value for RRIRFRPPRLPRPRPRPANDPRP was 0.0325; that for RRIRFRPPRLPRPRPRPNCRPRP was 0.0638.
Consider RRIRMRPPRLPRPRPRPQANPRP, for which the “shrunken log2 fold change” value was determined as 0.271.
Turning to RRIRKRPPRLPRPRPRPFMYPRP, the “shrunken log2 fold change” value was -0.401.
The same measure for RRIRWRPPRLPRPRPRPVGRPRP: 0.0962; for RRIRERPPRLPRPRPRPMQDPRP: 0.306; for RRIRDRPPRLPRPRPRPGMMPRP: 0.0672.
The value for RRIRPRPPRLPRPRPRPGVNPRP was -0.342; that for RRIRYRPPRLPRPRPRPGSFPRP was -0.0331; that for RRIRFRPPRLPRPRPRPCIWPRP was 0.25.
The value for RRIRFRPPRLPRPRPRPYASPRP was -0.0651; that for RRIRWRPPRLPRPRPRPISTPRP was -0.399.
Take RRIRGRPPRLPRPRPRPYGLPRP: the “shrunken log2 fold change” value was determined as 0.0992.
The same measure for RRIRLRPPRLPRPRPRPVYPPRP: -0.132.
The value for RRIRFRPPRLPRPRPRPITWPRP was -0.972.
As to RRIRQRPPRLPRPRPRPHVTPRP, the “shrunken log2 fold change” value was determined as 0.0406.
As for RRIRMRPPRLPRPRPRPWLTPRP, the “shrunken log2 fold change” value amounted to 0.158.
The value for RRIRWRPPRLPRPRPRPCLHPRP was -0.01.
The same measure for RRIRCRPPRLPRPRPRPCQLPRP: -0.171; for RRIRPRPPRLPRPRPRPGYFPRP: -0.0323; for RRIRPRPPRLPRPRPRPAMWPRP: 0.251.
On to RRIRCRPPRLPRPRPRPEYRPRP, for which the “shrunken log2 fold change” value was -0.00301.
The same measure for RRIRIRPPRLPRPRPRPCKHPRP: -0.118; for RRIRTRPPRLPRPRPRPWRPPRP: 0.00182; for RRIRARPPRLPRPRPRPMRDPRP: 1.04.
RRIRTRPPRLPRPRPRPHPHPRP: the “shrunken log2 fold change” value was 0.0583.
The same measure for RRIRRRPPRLPRPRPRPKHLPRP: 0.0709; for RRIRSRPPRLPRPRPRPKSDPRP: -0.082.
In the case of RRIRFRPPRLPRPRPRPIHWPRP, the “shrunken log2 fold change” value was -0.414.
The same measure for RRIRHRPPRLPRPRPRPNKNPRP: -0.717.
The same measure for RRIRSRPPRLPRPRPRPHILPRP: -0.0674.
As for RRIRRRPPRLPRPRPRPIIVPRP, the “shrunken log2 fold change” value was found to be 0.0931.
The same measure for RRIRSRPPRLPRPRPRPDKVPRP: 0.151.
The value for RRIRTRPPRLPRPRPRPTYHPRP was -0.291.
The same measure for RRIRQRPPRLPRPRPRPAPPPRP: 0.702; for RRIRPRPPRLPRPRPRPEIIPRP: -0.0816.
Turning to RRIRTRPPRLPRPRPRPKFIPRP, the “shrunken log2 fold change” value was -0.175.
The value for RRIRPRPPRLPRPRPRPCAMPRP was 0.0848; that for RRIRIRPPRLPRPRPRPGGCPRP was 0.0544.
The value for RRIRYRPPRLPRPRPRPKNGPRP was 0.013; that for RRIRCRPPRLPRPRPRPVKSPRP was 0.967.
The same measure for RRIRPRPPRLPRPRPRPYYHPRP: -0.794.
Turning to RRIRGRPPRLPRPRPRPAHTPRP, the “shrunken log2 fold change” value amounted to 0.761.
The value for RRIRGRPPRLPRPRPRPVAWPRP was 0.508; that for RRIRHRPPRLPRPRPRPMKCPRP was -0.0796.
The same measure for RRIRGRPPRLPRPRPRPSMDPRP: 0.0712; for RRIRDRPPRLPRPRPRPHAAPRP: 0.458.
RRIRGRPPRLPRPRPRPQMVPRP: the “shrunken log2 fold change” value is 0.166.
The value for RRIRVRPPRLPRPRPRPAICPRP was -0.0408; that for RRIRGRPPRLPRPRPRPAVCPRP was 0.938.
Regarding RRIRVRPPRLPRPRPRPLKVPRP, the “shrunken log2 fold change” value was -0.136.
As to RRIRARPPRLPRPRPRPYTRPRP, the “shrunken log2 fold change” value was -0.124.
On to RRIRQRPPRLPRPRPRPIDGPRP, for which the “shrunken log2 fold change” value is 0.0784.
The value for RRIRGRPPRLPRPRPRPQAQPRP was 1.02; that for RRIRFRPPRLPRPRPRPETTPRP was 0.533.
The value for RRIRLRPPRLPRPRPRPNAFPRP was 0.00952; that for RRIRDRPPRLPRPRPRPLSCPRP was -0.212; that for RRIRTRPPRLPRPRPRPRWKPRP was 0.0709.
The same measure for RRIRSRPPRLPRPRPRPDSEPRP: 0.139; for RRIRFRPPRLPRPRPRPAQCPRP: 0.0148; for RRIRHRPPRLPRPRPRPKRHPRP: 0.0834.
Consider RRIRWRPPRLPRPRPRPVVFPRP, for which the “shrunken log2 fold change” value is 0.0685.
The same measure for RRIRGRPPRLPRPRPRPDKLPRP: -0.0186; for RRIRKRPPRLPRPRPRPNYYPRP: -0.305; for RRIRNRPPRLPRPRPRPRYEPRP: -0.27.
The same measure for RRIRWRPPRLPRPRPRPHMRPRP: 0.494; for RRIRMRPPRLPRPRPRPEGVPRP: 3.21; for RRIRPRPPRLPRPRPRPWEGPRP: 0.0632.
The value for RRIRYRPPRLPRPRPRPHNPPRP was -1.15.
On to RRIRKRPPRLPRPRPRPTIKPRP, for which the “shrunken log2 fold change” value turned out to be 0.104.
The value for RRIRVRPPRLPRPRPRPNDGPRP was -0.133; that for RRIRRRPPRLPRPRPRPSNKPRP was -0.101.
The same measure for RRIRRRPPRLPRPRPRPPTGPRP: 0.625; for RRIRSRPPRLPRPRPRPIMSPRP: -0.173.
The same measure for RRIRMRPPRLPRPRPRPVWCPRP: -0.0672; for RRIRNRPPRLPRPRPRPWAFPRP: -0.014.
Turning to RRIRGRPPRLPRPRPRPCTAPRP, the “shrunken log2 fold change” value came to 0.875.
The same measure for RRIRIRPPRLPRPRPRPTEGPRP: 0.00534; for RRIRHRPPRLPRPRPRPSTFPRP: -0.0458; for RRIRYRPPRLPRPRPRPHNCPRP: -0.381.
RRIRCRPPRLPRPRPRPCIEPRP: the “shrunken log2 fold change” value was -0.453.
The value for RRIRTRPPRLPRPRPRPPPNPRP was 1.22; that for RRIRPRPPRLPRPRPRPIKIPRP was -0.319.
The same measure for RRIRCRPPRLPRPRPRPHQGPRP: -0.0624; for RRIRLRPPRLPRPRPRPLPFPRP: -0.289; for RRIRYRPPRLPRPRPRPGFIPRP: 2.02.
Take RRIRGRPPRLPRPRPRPFYFPRP: the “shrunken log2 fold change” value was determined as 0.219.
The same measure for RRIRARPPRLPRPRPRPPTIPRP: 0.0349; for RRIRTRPPRLPRPRPRPQPWPRP: 0.314; for RRIRKRPPRLPRPRPRPHIYPRP: -0.175.
Consider RRIRPRPPRLPRPRPRPHSVPRP, for which the “shrunken log2 fold change” value is -0.213.
The value for RRIRDRPPRLPRPRPRPAYTPRP was -0.00595; that for RRIRYRPPRLPRPRPRPQTKPRP was -0.168; that for RRIRCRPPRLPRPRPRPSFCPRP was -0.559.
The same measure for RRIRWRPPRLPRPRPRPPNSPRP: 0.39; for RRIRKRPPRLPRPRPRPQMAPRP: 0.481; for RRIRARPPRLPRPRPRPATLPRP: 0.34.
The same measure for RRIRSRPPRLPRPRPRPVYAPRP: 0.0491; for RRIRMRPPRLPRPRPRPSTTPRP: 0.352.
Turning to RRIRRRPPRLPRPRPRPEPDPRP, the “shrunken log2 fold change” value is 0.879.
The same measure for RRIRCRPPRLPRPRPRPYDTPRP: -0.308.
The same measure for RRIRTRPPRLPRPRPRPRLEPRP: 0.32; for RRIRPRPPRLPRPRPRPDHFPRP: -0.0536.
In the case of RRIRPRPPRLPRPRPRPSSYPRP, the “shrunken log2 fold change” value is -0.197.
The same measure for RRIRLRPPRLPRPRPRPWADPRP: -0.118.
The same measure for RRIRTRPPRLPRPRPRPLSNPRP: 0.012; for RRIRGRPPRLPRPRPRPIGHPRP: 0.39.
The value for RRIRSRPPRLPRPRPRPVENPRP was 0.0506; that for RRIRPRPPRLPRPRPRPELPPRP was 0.175; that for RRIRERPPRLPRPRPRPFGGPRP was -0.0945.
Consider RRIRTRPPRLPRPRPRPRETPRP, for which the “shrunken log2 fold change” value was found to be 0.511.
The value for RRIRSRPPRLPRPRPRPRPHPRP was 0.151; that for RRIRIRPPRLPRPRPRPCMWPRP was -1.51.
The same measure for RRIRCRPPRLPRPRPRPLHDPRP: 0.0221.
The same measure for RRIRIRPPRLPRPRPRPQAGPRP: -0.16.
RRIRIRPPRLPRPRPRPFVSPRP: the “shrunken log2 fold change” value was -0.571.
The value for RRIRNRPPRLPRPRPRPKCLPRP was 0.0771; that for RRIRCRPPRLPRPRPRPWDAPRP was -0.758; that for RRIRTRPPRLPRPRPRPARHPRP was 0.189.
For RRIRDRPPRLPRPRPRPQFAPRP, the “shrunken log2 fold change” value was -0.0178.
The same measure for RRIRGRPPRLPRPRPRPEPNPRP: 1.42.
The same measure for RRIRERPPRLPRPRPRPKAVPRP: 0.0311; for RRIRTRPPRLPRPRPRPSMNPRP: -0.28.
The value for RRIRDRPPRLPRPRPRPPKVPRP was 0.387.
